In US20120093826A1:
Numbering of substitutions follows the chain as printed. Blank lines part the entries; values can stand above or below the molecule they belong to.

Assays:
[1] = biological target: human CADM1 (cell surface, on CADM1-expressing human tumour cells and tissues) (human) (UniProt Q9BY67); experiment: cell-based or functional assay
[2] = biological target: human CADM1 (cell surface, on CADM1-expressing human tumour cells and tissues) (human) (UniProt Q9BY67); experiment: flow cytometry histogram on SKMEL28 cells, isotype control
[3] = biological target: human CADM1 (cell surface, on CADM1-expressing human tumour cells and tissues) (human) (UniProt Q9BY67); experiment: flow cytometry histogram on 786-0 cells, isotype control
[4] = biological target: human CADM1 (cell surface, on CADM1-expressing human tumour cells and tissues) (human) (UniProt Q9BY67); experiment: flow cytometry on NCI-H69 cells expressing human CADM1
[5] = biological target: human CADM1 (cell surface, on CADM1-expressing human tumour cells and tissues) (human) (UniProt Q9BY67); experiment: flow cytometry (FGMI) titration on 786-O renal cell carcinoma cells; table under the plot
[6] = biological target: human CADM1 (cell surface, on CADM1-expressing human tumour cells and tissues) (human) (UniProt Q9BY67); experiment: flow cytometry histogram on SKMEL28 cells
[7] = biological target: human CADM1 (cell surface, on CADM1-expressing human tumour cells and tissues) (human) (UniProt Q9BY67); experiment: flow cytometry (FACS Geomean) titration on A549 non-small cell lung cancer cells; the table under the plot prints no unit, nM is the unit of the x axis 'Ab conc in nM'
[8] = biological target: human CADM1 (cell surface, on CADM1-expressing human tumour cells and tissues) (human) (UniProt Q9BY67); experiment: flow cytometry histogram on 786-0 cells
[9] = biological target: human CADM1 (cell surface, on CADM1-expressing human tumour cells and tissues) (human) (UniProt Q9BY67); experiment: flow cytometry (FGMI) titration on SkMel28 melanoma cells; table under the plot
[10] = biological target: human CADM1 (cell surface, on CADM1-expressing human tumour cells and tissues) (human) (UniProt Q9BY67); experiment: flow cytometry (FACS Geomean) titration on A549 non-small cell lung cancer cells
[11] = biological target: human CADM1 (cell surface, on CADM1-expressing human tumour cells and tissues) (human) (UniProt Q9BY67); experiment: flow cytometry (FACS Geomean) titration on SKOV3 ovarian cancer cells; the table under the plot prints no unit, nM is the unit of the x axis 'Ab conc in nM'

Sequence of UniProt Q9BY67 (Q9BY67 45-442): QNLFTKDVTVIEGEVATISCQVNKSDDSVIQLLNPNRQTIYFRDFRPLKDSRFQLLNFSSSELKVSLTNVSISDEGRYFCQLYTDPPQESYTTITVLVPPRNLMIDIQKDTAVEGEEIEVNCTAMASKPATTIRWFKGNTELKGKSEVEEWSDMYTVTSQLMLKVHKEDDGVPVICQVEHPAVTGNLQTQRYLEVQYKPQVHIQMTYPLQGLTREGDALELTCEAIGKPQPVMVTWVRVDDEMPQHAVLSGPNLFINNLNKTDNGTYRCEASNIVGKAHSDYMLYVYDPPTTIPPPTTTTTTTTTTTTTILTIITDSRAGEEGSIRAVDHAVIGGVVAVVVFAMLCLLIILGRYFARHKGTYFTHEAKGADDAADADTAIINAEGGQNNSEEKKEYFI

Molecule: Isotype Control (antibody)
- % Specific Lysis: DMS79 (ADCC) [1]: 2.96%
- % Specific Lysis: NCI-H69 (ADCC) [1]: 3.3%
- number in the histogram legend box (name not given; axis FL2-H) [2]: 10.5
- number in the histogram legend box (name not given; axis FL2-H) [3]: 8.39

B3: PTA021_A3 human monoclonal antibody (antibody, V domains shown)
VH: QITLKESGPTLVKPTQTLTLTCTFSGFSLSTSGVGVGWIRQPPGKALEWLALIYWDDDKRYSPSLKSRLTITKDTSKNQVVLTMTNMDPVDTATYYCAHRRVEWVTLAGNWFDPWGQGTLVTVSS
VL: DIQMTQSPSSLSASVGDRVTITCRASQGISSWLAWYQQKPEKAPKSLIYAASSLQSGVPSRFSGSGSGTDFTLTISNLQPEDFATYYCQQYNSYPLTFGGGTKVEIK
- EC50 [5]: 3.25 nM
- % Specific Lysis: DMS79 (ADCC) [1]: 61%
- % Specific Lysis: NCI-H69 (ADCC) [1]: 29.8%
- number in the histogram legend box (name not given; axis FL2-H) [6]: 25.9
- EC50 [4]: 0.674 nM
- EC50 [7]: 3.65 nM
- number in the histogram legend box (name not given; axis FL2-H) [8]: 42.6
- EC50 [9]: 4.42 nM
- EC50 (read off the curve) [10]: 4 nM
- EC50 [11]: 12.6 nM

Further lines, results first:

- % Specific Lysis: DMS79 (ADCC) [1]: 37.8%
- % Specific Lysis: NCI-H69 (ADCC) [1]: 24.6%
- EC50 [4]: 0.588 nM
B1: PTA021_A1 human monoclonal antibody (antibody, V domains shown)
VH: B3 VH with S30N, T106A
VL: B3 VL with A50G

- % Specific Lysis: DMS79 (ADCC) [1]: 34.7%
- % Specific Lysis: NCI-H69 (ADCC) [1]: 15.9%
- EC50 [4]: 0.667 nM
B2: PTA021_A2 human monoclonal antibody (antibody, V domains shown)
VH: B3 VH with T94I, V105F, T106A, T119S
VL: B3 VL with N77S
